Values joined by “and” are separate entries in the source; they are usually repeats but may differ in a detail not shown here. Equal values may be shown once.
B1: TRIB3 (tribbles pseudokinase 3), purified protein (natural protein)
chain: MRATPLAAPAGSLSRKKRLELDDNLDTERPVQKRARSGPQPRLPPCLLPLSPPTAPDRATAVATASRLGPYVLLEPEEGGRAYQALHCPTGTEYTCKVYPVQEALAVLEPYARLPPHKHVARPTEVLAGTQLLYAFFTRTHGDMHSLVRSRHRIPEPEAAVLFRQMATALAHCHQHGLVLRDLKLCRFVFADRERKKLVLENLEDSCVLTGPDDSLWDKHACPAYVGPEILSSRASYSGKAADVWSLGVALFTMLAGHYPFQDSEPVLLFGKIRRGAYALPAGLSAPARCLVRCLLRREPAERLTATGILLHPWLRQDPMPLAPTRSHLWEAAQVVPDGLGLDEAREEEGDREVVLYG

Assays:
[1] = target: B1; test: SPR
[2] = target: T1, SAH-JGZ4, stapled JGZ peptide (UniProt P00533, two units of nonnatural alkenyl amino acids S5 at the relative positions i and i + 4, cross-linked by ring-closing olefin metathesis); test: FP
JGZ-M4 = test: SPR
JGZ-M15 = test: SPR
JGZ-M2 = test: SPR
JGZ-M1 = test: SPR
JGZ-M10 = test: SPR
JGZ-M6 = test: SPR
JGZ-M12 = test: SPR
JGZ-M11 = test: SPR
JGZ-M13 = test: SPR
SAH-JGZ2 = test: SPR
[3] = target: T1, SAH-JGZ4, stapled JGZ peptide; test: SPR
[4] = target: T1, SAH-JGZ4, stapled JGZ peptide; test: SPR; remark: listed apart in the source

Binder | Kd [1] [nM] | Kd [2] [nM] | Kd (JGZ-M4) [nM] | Kd (JGZ-M15) [nM] | Kd (JGZ-M2) [nM] | Kd (JGZ-M1) [nM] | Kd (JGZ-M10) [nM] | Kd (JGZ-M6) [nM] | Kd (JGZ-M12) [nM] | Kd (JGZ-M11) [nM] | Kd (JGZ-M13) [nM] | Kd (SAH-JGZ2) [nM] | Kd [3] | Kd [4] [nM]
NQALLRIVKETEFK [JMA2 peptide with the Leu-to-Val substitution] | 5370 |  |  |  |  |  |  |  |  |  |  |  |  | 
NQALLRIIKETEFK [JMA2 peptide with the Leu-to-Ile substitution] | 1060 |  |  |  |  |  |  |  |  |  |  |  |  | 
B1 |  | 55.4 | 2470 | 1160 | 424 | 642 | 337 | 1210 | 402 | 892 | 796 | 235 | 84.1 nM and 66.1 nM | 137

— article PMC7374170 (2020)
